The values that follow come from PMC5818740 (2018).

As a reminder, the IC50 is the concentration that gives 50% inhibition.

This assay addresses PICK PDZ-BAR construct. The assay can be described thus: FP.

Ends that are not written are not given here.

Chain of PICK PDZ-BAR construct (chain, as listed by the source): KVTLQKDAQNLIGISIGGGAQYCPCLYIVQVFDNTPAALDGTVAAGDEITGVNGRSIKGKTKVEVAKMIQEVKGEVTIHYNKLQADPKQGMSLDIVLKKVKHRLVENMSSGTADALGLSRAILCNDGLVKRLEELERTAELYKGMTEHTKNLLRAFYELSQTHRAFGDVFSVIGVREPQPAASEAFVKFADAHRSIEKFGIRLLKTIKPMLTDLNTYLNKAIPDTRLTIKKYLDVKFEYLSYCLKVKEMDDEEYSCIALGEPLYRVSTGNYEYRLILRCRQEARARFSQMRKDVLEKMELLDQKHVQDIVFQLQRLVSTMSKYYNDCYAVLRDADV

B1: GluR2 peptide (competitor in the fluorescence polarization assay) (peptide)
chain: VYGIESVKI-OH
Take B1: half-maximal inhibition (IC50) required 15.3 µM.
